Data: US20260028400A1
Values belong to the binder of their own block, whether it stands above or below them.

Columns and labels:
[1] = molecular target: human- or mouse-derived ROR1 antigen (Sino Biological); experiment: ELISA on coated ROR1 antigen (human or mouse not said), OD450
[2] = molecular target: human- or mouse-derived ROR1 antigen (Sino Biological); experiment: ELISA on coated ROR1 antigen (Sino Biological), conjugate against parent antibody P015044
[3] = molecular target: human- or mouse-derived ROR1 antigen (Sino Biological); experiment: ELISA on coated ROR1 antigen (Sino Biological), conjugate against parent antibody P015004
[4] = molecular target: human- or mouse-derived ROR1 antigen (Sino Biological); experiment: ELISA on coated ROR1 antigen (Sino Biological), conjugate against parent antibody P015042

B3: P015004 (antibody, V domains shown)
VH: EVQLLESGGGLVQPGGSLRLSCAASGFTFSDYAMAWVRQAPGKGLEWVSIIYPGDSETIYSPSFEGRFTISRDNSKNTLYLQMNSLRAEDTAVYYCARDTYWEGYFDLWGQGTLVTVSS
VL: EIVLTQSPGTLSLSPGERATLSCRASQGISNYLAWYQQKPGQAPRLLIYDASNLESGIPDRFSGSGSGTDFTLTISRLEPEDFAVYYCQQYANLPYTFGQGTKVEIK
EC50 (read off the curve) [1]: 0.8 nM

B4: P015004-vc-PAB-MMAE (antibody, IgG1, V domains shown)
VH: B3 VH
VL: B3 VL
modifications: maleimidocaproyl-valine-citrulline-p-aminobenzyloxycarbonyl monomethyl auristatin E on cysteine sulfhydryls of reduced disulfides; positions not given; average 3.0 drugs per antibody
Affinity compared to parent antibody (%) [3]: 80.3%
EC50 (read off the curve) [1]: 2 nM

B5: P015042 (antibody, V domains shown)
VH: EVQLLESGGGLVQPGGSLRLSCAASGFTFSDYAMSWVRQAPGKGLEWVSVISSDGGSIYYADSVKGRFTISRDNSKNTLYLQMNSLRAEDTAVYYCAKDRSRDMEVDFDYWGQGTLVTVSS
VL: QSVLTQPPSASGTPGQRVTISCSGSSSNIGSNYVTWYQQLPGTAPKLLIYDSSQRPSGVPDRFSGSKSGTSASLAISGLRSEDEADYYCGTWDYSLSGYVFGGGTKLTVL
EC50 (read off the curve) [1]: 0.5 nM

Next, values leading:

EC50 (read off the curve) [1]: 0.8 nM
B1: P015044 (antibody, V domains shown)
VH: EVQLLESGGGLVQPGGSLRLSCAASGFTFSNYAMHWVRQAPGKGLEWVSIIYPDDDTRYNPSFRGRFTISRDNSKNTLYLQMNSLRAEDTAVYYCARDLLYAGDYWGQGTLVTVSS
VL: QSVLTQPPSASGTPGQRVTISCGGNNIESKAVHWYQQLPGTAPKLLIYANNKRPSGVPDRFSGSKSGTSASLAISGLRSEDEADYYCQSYDSNKVVFGGGTKLTVL

EC50 (read off the curve) [1]: 2 nM
Affinity compared to parent antibody (%) [2]: 82.7%
B2: P015044-vc-PAB-MMAE (antibody, IgG1, V domains shown)
VH: B1 VH
VL: B1 VL
modifications: maleimidocaproyl-valine-citrulline-p-aminobenzyloxycarbonyl monomethyl auristatin E on cysteine sulfhydryls of reduced disulfides; positions not given; average 3.0 drugs per antibody

EC50 (read off the curve) [1]: 2 nM
Affinity compared to parent antibody (%) [4]: 99.3%
B6: P015042-vc-PAB-MMAE (antibody, IgG1, V domains shown)
VH: B5 VH
VL: B5 VL
modifications: maleimidocaproyl-valine-citrulline-p-aminobenzyloxycarbonyl monomethyl auristatin E on cysteine sulfhydryls of reduced disulfides; positions not given; average 3.3 drugs per antibody
